Assay [1] addresses T1, HBD wt peptide (hepcidin binding domain of ferroportin with two arginines at each end).
T1 construct: Synthetic peptide; also called I-HBD (when immobilized on agarose beads or 96-well plates); HBD-beads
T1 peptide: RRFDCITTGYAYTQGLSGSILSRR
Briefly: binding to HBD, data not shown.

Assay [2] addresses T1, HBD wt peptide (hepcidin binding domain …). Briefly: competition with sub saturating ^125I-hepcidin (0.6 ug/ml) for bead-immobilized HBD (I-HBD), 18 h at 37 C, gamma counting (FIG. 2B). The method, then: FIGS. 2A-C illustrates that the binding of ¹²⁵I-hepcidin to HBD is specific and temperature dependent. In FIG. 2A peptides (HBD, scrambled-HBD or mutant (C326Y HBD) were conjugated to beads and ¹²⁵I-hepcidin was added to the bead-immobilized peptides (I-HBD) for 18 hours at 37° C. (black bars) or 4° C. (grey bars). The beads were washed and the amount of ¹²⁵I-hepcidin bound to the I-HBD was determined. In FIG. 2B a sub saturating concentration of ¹²⁵I-hepcidin (0.6 μg/ml) was incubated with I-HBD for 18 hours at 37° C. in the presence or absence of known concentrations of either hepcidin 25 (Hep 25-open circles) or hepcidin 25 synthesized with a tyrosine substitution at position M21 (Y-Hep 25) and the amount of radioactivity bound to the I-HBD determined. In FIG. 2C sub saturating levels of ¹²⁵I-hepcidin were incubated with I-HBD at different temperatures.
HBD peptides were immobilized by covalently attaching them to agarose beads. Immobilization was performed using AminoLink Plus Immobilization Kit (Pierce) following the manufacturer's instructions. 1.0 mg of HBD peptide was used per 2.0 ml of AminoLink beads. To measure hepcidin concentrations in biological fluids, samples were mixed with a defined concentration of ¹²⁵I-hepcidin and then added to HBD conjugated beads. […] The fluid was removed and the radioactivity bound to beads was determined by gamma counting (Perkin/Elmer).

The text below walks through data of patent US20100292147A1 (UNIVERSITY OF UTAH RESEARCH FOUNDATION, published 2010).

No end group written: not given here.

B1: Hep20 (hepcidin 20, hepcidin lacking the five amino terminal amino acids) (peptide)
peptide: ICIFCCGCCHRSKCGMCCKT
modifications: ends and bridges not checked; also: native intramolecular disulfides, pairing not given here
As for B1, the binding result in assay [1] is on record as “no binding”.

B2: hepcidin (hepcidin 25, native non-radioactive hepcidin) (peptide, UniProt P81172 60-84, looked up)
peptide: DTHFPICIFCCGCCHRSKCGMCCKT
modifications: ends and bridges not checked; also: native intramolecular disulfides, pairing not given here
notes: mature; Synthetic peptide; also called Hep 25; Hep25
As to B2, in assay [2], the “apparent K” value was ~200 nM.
